Measured values from publication PMC11739670 (European Journal of Immunology, 2024).
Several values for one entry are separate records, joined by “and”; a condition that tells them apart may be missing. Equal values may be shown once.

B1: soluble human CD8αβ-Fc heterodimer (Fc fusion)
chain 1: not shown
chain 2: LQQTPAYIKVQTNKMVMLSCEAKISLSNMRIYWLRQRQAPSSDSHHEFLALWDSAKGTIHGEEVEQEKIAVFRDASRFILNLTSVKPEDSGIYFCMIVGSPELTFGKGTQLSVVDFLPTTAQPTKKSTLKKRVCRLPRPETQKGPLCSP
notes: CD8 alpha extracellular domain, human, Uniprot P01732, residues 22-182; CD8 beta extracellular domain, human, Uniprot P10966, residues 22-170; Cloned in pFUSE-hIgG1e3 behind a mouse kappa light-chain secretion signal; source: ExpiCHO, purified (protein A, gel filtration); copies: 1 + 1
B2: soluble human CD8αβ-Fc heterodimer (Fc fusion)
chain 1: not shown
chain 2: B1 chain 2
notes: CD8α extracellular domain, human, Uniprot P01732, residues 22-182; CD8β extracellular domain, human, Uniprot P10966, residues 22-170; Cloned into pFUSE-hIgG1e3 downstream of a mouse kappa light-chain secretion signal, subcloned into pcDNA3.1; source: ExpiCHO, purified (protein A, gel filtration on Superdex 200); copies: 1 + 1

Key:
Conditions in all cases: both partners purified
[1] = target: HLA-A*03:01 with peptide … (human | , biotin on the Avi-tag (BirA ligase)); test: SPR; BIAcore T200, CM5 chip with streptavidin; biotinylated pMHCI, MR1 or CD1 captured; serial dilution of CD8-Fc fusion injected; 25°C, PBS with 0.005% Tween 20; steady-state responses, 1:1 Langmuir fit
[2] = target: T1, MHCI-related protein 1 (MR1) with β2m, loaded with 5-formyl salicylic acid (human, UniProt Q95460 23-302; P61769 21-119, biotin on the Avi-tag (BirA ligase)); test: as above
T1 construct: MR1 heavy chain, human; beta-2 microglobulin; Small-molecule cargo: 5-formyl salicylic acid; Same protein chains as Dm11 and Dm12; they differ in the cargo only; also called MR1-5FSA; not shown: Avi-tag, C-terminal, kept

[3] = target: HLA-A*02:01 with peptide … (human | , biotin on the Avi-tag (BirA ligase)); test: as above
[4] = target: T2, MHCI-related protein 1 (MR1) with β2m, loaded with 6-formylpterin (human, UniProt Q95460 23-302; P61769 21-119, biotin on the Avi-tag (BirA ligase)); test: as above
T2 construct: MR1 heavy chain, human; beta-2 microglobulin; Small-molecule cargo: 6-formylpterin; Same protein chains as Dm11 and Dm13; they differ in the cargo only; also called MR1-6FP; not shown: Avi-tag, C-terminal, kept

[5] = target: HLA-A*02:01 with peptide … (human | , biotin on the Avi-tag (BirA ligase)); test: as above; remark: listed apart in the source
[6] = target: HLA-A*01:01 with peptide … (human | , biotin on the Avi-tag (BirA ligase)); test: as above
[7] = target: T3, MHCI-related protein 1 (MR1) with β2m, loaded with 5-(2-oxopropylideneamino)-6-d-ribitylaminouracil (human, UniProt Q95460 23-302; P61769 21-119, biotin on the Avi-tag (BirA ligase)); test: as above
T3 construct: MR1 heavy chain, human; beta-2 microglobulin; Small-molecule cargo: 5-OP-RU; Same protein chains as Dm12 and Dm13; they differ in the cargo only; also called MR1-5OPRU; not shown: Avi-tag, C-terminal, kept

[8] = target: T4, MHCI-related protein 1 (MR1) with β-2 microglobulin, biotinylated, loaded with model ligands (human | , UniProt Q95460 23-292; P61769 21-119, biotin on the Avi-tag (BirA ligase)); test: SPR; biotinylated ligands (pMHCI, MR1, CD1) captured on streptavidin coupled to a CM5 chip; serial dilution of each CD8-Fc fusion injected; steady-state responses, 1:1 Langmuir fit; BIAcore T200, 25°C, PBS with 0.005% Tween 20
T4 construct: MR1 heavy chain, human; β-2 microglobulin; Small-molecule cargoes: 5-(2-oxopropylideneamino)-6-d-ribitylaminouracil, 6-formylpterin, 5-formyl salicylic acid; not shown: Avi-tag, C-terminal, kept

[9] = target: HLA-A*01:01 peptide-MHC class I (biotinylated pMHCI) (human | , biotin on the Avi-tag (BirA ligase)); test: as above
[10] = target: HLA-A*02:01 peptide-MHC class I (biotinylated pMHCI) (human | , biotin on the Avi-tag (BirA ligase)); test: as above

Binder	Kd [1] [µM]	Kd [2]	Kd [3]	Kd [4]	Kd [5] [µM]	Kd [6] [µM]	Kd [7]	Kd [8] [µM]	Kd [9] [µM]	Kd [10]
B1	147	267 µM and 285 µM	255 µM and 244 µM	250 µM and 220 µM	238	101	228 µM and 233 µM	–	–	–
B2	–	–	–	–	–	–	–	~250	107	189 µM and ~230 µM
